# Publication PMC8683085, “Serine ADP-ribosylation marks nucleosomes for ALC1-dependent chromatin remodeling” (eLife, 2021)
# B1: ALC1 (full-length, 6xHis-1xFLAG-ALC1) (enzyme, UniProt Q86WJ1 1-897, looked up)
# chain: MERAGATSRGGQAPGFLLRLHTEGRAEAARVQEQDLRQWGLTGIHLRSYQLEGVNWLAQRFHCQNGCILGDEMGLGKTCQTIALFIYLAGRLNDEGPFLILCPLSVLSNWKEEMQRFAPGLSCVTYAGDKEERACLQQDLKQESRFHVLLTTYEICLKDASFLKSFPWSVLVVDEAHRLKNQSSLLHKTLSEFSVVFSLLLTGTPIQNSLQELYSLLSFVEPDLFSKEEVGDFIQRYQDIEKESESASELHKLLQPFLLRRVKAEVATELPKKTEVVIYHGMSALQKKYYKAILMKDLDAFENETAKKVKLQNILSQLRKCVDHPYLFDGVEPEPFEVGDHLTEASGKLHLLDKLLAFLYSGGHRVLLFSQMTQMLDILQDYMDYRGYSYERVDGSVRGEERHLAIKNFGQQPIFVFLLSTRAGGVGMNLTAADTVIFVDSDFNPQNDLQAAARAHRIGQNKSVKVIRLIGRDTVEEIVYRKAASKLQLTNMIIEGGHFTLGAQKPAADADLQLSEILKFGLDKLLASEGSTMDEIDLESILGETKDGQWVSDALPAAEGGSRDQEEGKNHMYLFEGKDYSKEPSKEDRKSFEQLVNLQKTLLEKASQEGRSLRNKGSVLIPGLVEGSTKRKRVLSPEELEDRQKKRQEAAAKRRRLIEEKKRQKEEAEHKKKMAWWESNNYQSFCLPSEESEPEDLENGEESSAELDYQDPDATSLKYVSGDVTHPQAGAEDALIVHCVDDSGHWGRGGLFTALEKRSAEPRKIYELAGKMKDLSLGGVLLFPVDDKESRNKGQDLLALIVAQHRDRSNVLSGIKMAALEEGLKKIFLAAKKKKASVHLPRIGHATKGFNWYGTERLIRKHLAARGIPTYIYYFPRSKSAVLHSQSSSSSSRQLVP
# notes: ALC1 (CHD1L), full-length gene synthesized by Twist Biosciences; also called FLAG-tagged ALC1; recombinant, full-length ALC1; source: Sf9 (baculovirus), purified (anti-FLAG M2 magnetic resin, FLAG peptide elution); not shown: FLAG, N-terminal, kept
# Experiments:
# [1] = molecular target: H2BS6/H3S10ADPr4 nucleosome (UniProt P68431 22-136; P62805 1-103, H3A21C, tetra-ADP-ribose on S6 | tetra-ADP-ribose on S10); experiment: cell-based or functional assay
# PARP1 SerADPr_(long) = molecular target: T1, PARP1 SerADPr_(long) (UniProt P09874 1-1014, long serine-linked ADP-ribose chains; a small population of aspartate- and/or glutamate-linked ADPr; sites not told); experiment: co-IP; purified components: 100 nM FLAG-ALC1, 50 nM unmodified or H3S10ADPr3 nucleosomes, 100 nM PARP1 (unmodified, SerADPr long or short); 100 mM KCl, 25 mM HEPES pH 7.9, 2 mM MgCl2, 5% glycerol, 0.1% NP-40, 1 mM DTT; anti-FLAG M2 magnetic resin; western blot; settings: both partners purified
# T1 construct: PARP1, full-length construct, as m15; also called serine-auto-ADP-ribosylated PARP1 with long chains; automodified PARP1
# T1 sequence (P09874 whole entry): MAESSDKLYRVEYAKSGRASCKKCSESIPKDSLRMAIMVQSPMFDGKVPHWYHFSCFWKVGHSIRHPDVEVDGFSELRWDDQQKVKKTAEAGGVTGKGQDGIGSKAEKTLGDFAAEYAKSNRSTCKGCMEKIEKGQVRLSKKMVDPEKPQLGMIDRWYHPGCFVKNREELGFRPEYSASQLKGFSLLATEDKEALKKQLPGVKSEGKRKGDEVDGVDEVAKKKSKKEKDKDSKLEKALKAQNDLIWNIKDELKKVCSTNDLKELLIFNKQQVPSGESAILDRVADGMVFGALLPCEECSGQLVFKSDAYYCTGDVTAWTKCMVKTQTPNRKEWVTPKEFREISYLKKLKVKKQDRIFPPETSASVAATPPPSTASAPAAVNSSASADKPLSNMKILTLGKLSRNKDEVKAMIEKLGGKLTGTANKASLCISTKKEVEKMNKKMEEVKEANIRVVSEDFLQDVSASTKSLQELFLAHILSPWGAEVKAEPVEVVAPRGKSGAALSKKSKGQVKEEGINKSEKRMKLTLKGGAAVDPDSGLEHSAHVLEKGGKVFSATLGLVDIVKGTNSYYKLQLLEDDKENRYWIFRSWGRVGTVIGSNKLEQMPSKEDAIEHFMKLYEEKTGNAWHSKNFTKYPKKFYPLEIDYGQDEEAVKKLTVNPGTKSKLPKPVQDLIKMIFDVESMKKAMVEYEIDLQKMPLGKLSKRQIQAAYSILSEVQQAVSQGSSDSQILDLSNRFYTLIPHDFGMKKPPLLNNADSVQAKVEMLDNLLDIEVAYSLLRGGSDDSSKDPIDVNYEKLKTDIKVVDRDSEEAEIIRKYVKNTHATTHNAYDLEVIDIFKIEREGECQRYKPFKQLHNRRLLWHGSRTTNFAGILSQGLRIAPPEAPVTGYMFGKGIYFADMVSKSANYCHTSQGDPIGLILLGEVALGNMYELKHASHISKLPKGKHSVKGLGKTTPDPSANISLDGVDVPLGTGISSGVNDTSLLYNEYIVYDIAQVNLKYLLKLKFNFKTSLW
# PARP1 SerADPr_(short) = molecular target: T2, PARP1 SerADPr_(short) (UniProt P09874 1-1014, relatively short serine-linked ADP-ribose chains; sites not told); experiment: as above; settings: both partners purified
# T2 construct: PARP1, full-length construct, as m15; also called serine-auto-ADP-ribosylated PARP1 with relatively short chains; automodified PARP1
# T2 sequence (P09874 whole entry): as above
binder,measurement,setting,value
B1,ALC1 remodeling rate constant relative to the unmodified nucleosome (REA assay),[1],~370 fold
same,binding result,PARP1 SerADPr_(long),binds
same,binding result,PARP1 SerADPr_(short),binds
